{"source": "paper PMC10397247", "binders": {"B1": {"name": "4H2839-bN (peptide)", "chain": "DKIQQLKQKIQELEQENQELEWKNQELEQ"}, "B2": {"name": "P9A (peptide)", "chain": "DENQALEQKNAQLKQEIAALEQEIAQLEY"}, "B3": {"name": "4H3587-AA (peptide)", "chain": "DKNAALKAEIAALEAEIAALEAENAALEG"}, "B4": {"name": "4H2726-AA (peptide)", "chain": "DKIAALKAENAALEAKIAALEAKIAALKG"}, "B5": {"name": "P9SHb (peptide)", "chain": "DENEKLERKNRKLKEEIEKLEREIRYLEE"}, "B6": {"name": "4H2915-bH (peptide)", "chain": "DKIQELKKKIEELKRKIWELEKENQELER"}}, "key": {"[1]": {"target": "T1, 4H2839-bN", "T1 chain": "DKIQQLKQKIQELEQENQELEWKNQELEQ", "experiment": "two-hybrid library CCNG1;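 also: natural log of median RNA to DNA barcode read ratio; higher means stronger binding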"}, "[2]": {"target": "T2, 4H2915-bN", "T2 chain": "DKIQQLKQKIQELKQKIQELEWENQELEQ", "experiment": "two-hybrid library CCNG1"}, "[3]": {"target": "T3, 4H3057-bN", "T3 chain": "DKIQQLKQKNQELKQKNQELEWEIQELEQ", "experiment": "two-hybrid library CCNG1"}, "[4]": {"target": "T4, 4H319-bN", "T4 chain": "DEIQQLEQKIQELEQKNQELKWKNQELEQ", "experiment": "two-hybrid library CCNG1"}, "[5]": {"target": "T5, 4H3277-bN", "T5 chain": "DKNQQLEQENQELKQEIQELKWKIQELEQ", "experiment": "two-hybrid library CCNG1"}, "[6]": {"target": "T6, 4H348-bN", "T6 chain": "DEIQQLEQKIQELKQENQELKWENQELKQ", "experiment": "two-hybrid library CCNG1"}, "[7]": {"target": "T7, 4H40-bN", "T7 chain": "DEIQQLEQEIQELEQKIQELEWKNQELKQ", "experiment": "two-hybrid library CCNG1"}, "[8]": {"target": "T8, 4H477-bN", "T8 chain": "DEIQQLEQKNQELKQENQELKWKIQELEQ", "experiment": "two-hybrid library CCNG1"}, "[9]": {"target": "T9, 4H492-bN", "T9 chain": "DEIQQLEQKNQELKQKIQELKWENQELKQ", "experiment": "two-hybrid library CCNG1"}, "[10]": {"target": "T10, 4H741-bN", "T10 chain": "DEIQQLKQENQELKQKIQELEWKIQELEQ", "experiment": "two-hybrid library CCNG1"}, "[11]": {"target": "T11, P9A", "T11 chain": "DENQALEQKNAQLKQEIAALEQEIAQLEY", "experiment": "two-hybrid library CCNG1"}, "[12]": {"target": "T12, 4H3587-AA", "T12 chain": "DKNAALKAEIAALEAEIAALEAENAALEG", "experiment": "two-hybrid library CCmax"}, "[13]": {"target": "T13, 4H3590-AA", "T13 chain": "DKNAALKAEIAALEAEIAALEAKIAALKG", "experiment": "two-hybrid library CCmax", "conditions": "mean of both orientations"}, "[14]": {"target": "T14, 4H3625-AA", "T14 chain": "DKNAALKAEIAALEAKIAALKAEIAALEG", "experiment": "two-hybrid library CCmax", "conditions": "mean of both orientations"}, "[15]": {"target": "T15, 4H384-AA", "T15 chain": "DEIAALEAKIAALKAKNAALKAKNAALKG", "experiment": "two-hybrid library CCmax", "conditions": "mean of both orientations"}, "[16]": {"target": "T16, 4H3905-AA", "T16 chain": "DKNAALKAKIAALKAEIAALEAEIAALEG", "experiment": "two-hybrid library CCmax", "conditions": "mean of both orientations"}, "[17]": {"target": "T17, 4H4038-AA", "T17 chain": "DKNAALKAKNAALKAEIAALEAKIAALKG", "experiment": "two-hybrid library CCmax", "conditions": "mean of both orientations"}, "[18]": {"target": "T18, 4H43-AA", "T18 chain": "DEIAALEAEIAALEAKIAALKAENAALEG", "experiment": "two-hybrid library CCmax", "conditions": "mean of both orientations"}, "[19]": {"target": "T19, 4H451-AA", "T19 chain": "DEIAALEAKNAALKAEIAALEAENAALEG", "experiment": "two-hybrid library CCmax", "conditions": "mean of both orientations"}, "[20]": {"target": "T20, 4H510-AA", "T20 chain": "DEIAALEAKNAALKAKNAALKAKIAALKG", "experiment": "two-hybrid library CCmax", "conditions": "mean of both orientations"}, "[21]": {"target": "T21, 4H_APH", "T21 chain": "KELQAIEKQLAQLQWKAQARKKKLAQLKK", "experiment": "two-hybrid library CCmax"}, "[22]": {"target": "T22, 4H_BCR", "T22 chain": "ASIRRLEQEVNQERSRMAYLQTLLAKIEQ", "experiment": "two-hybrid library CCmax"}, "[23]": {"target": "4H_GCN4", "sequence (chain, as listed by the source)": "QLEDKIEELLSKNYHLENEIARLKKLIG", "experiment": "two-hybrid library CCmax"}, "[24]": {"target": "GCN2_T", "experiment": "two-hybrid library CCmax"}, "[25]": {"target": "T23, O11-AA", "T23 chain": "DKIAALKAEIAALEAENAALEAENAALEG", "experiment": "two-hybrid library CCmax", "conditions": "mean of both orientations"}, "[26]": {"target": "T24, O13-AA", "T24 chain": "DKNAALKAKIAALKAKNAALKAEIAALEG", "experiment": "two-hybrid library CCmax", "conditions": "mean of both orientations"}, "[27]": {"target": "T25, O14-AA", "T25 chain": "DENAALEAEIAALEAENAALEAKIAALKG", "experiment": "two-hybrid library CCmax", "conditions": "mean of both orientations"}, "[28]": {"target": "T26, 4H2726-AA", "T26 chain": "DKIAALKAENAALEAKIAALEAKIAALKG", "experiment": "two-hybrid library CCmax"}, "[29]": {"target": "T27, 4H2935-AA", "T27 chain": "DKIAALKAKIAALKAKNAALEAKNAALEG", "experiment": "two-hybrid library CCmax", "conditions": "mean of both orientations"}, "[30]": {"target": "T28, 4H327-AA", "T28 chain": "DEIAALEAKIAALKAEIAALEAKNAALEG", "experiment": "two-hybrid library CCmax"}, "[31]": {"target": "T29, 4H3605-AA", "T29 chain": "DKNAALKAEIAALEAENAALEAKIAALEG", "experiment": "two-hybrid library CCmax", "conditions": "mean of both orientations"}, "[32]": {"target": "T30, 4H3664-AA", "T30 chain": "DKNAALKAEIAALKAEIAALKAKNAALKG", "experiment": "two-hybrid library CCmax", "conditions": "mean of both orientations"}, "[33]": {"target": "T31, 4H369-AA", "T31 chain": "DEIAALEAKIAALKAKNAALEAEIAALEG", "experiment": "two-hybrid library CCmax", "conditions": "mean of both orientations"}, "[34]": {"target": "T32, 4H3922-AA", "T32 chain": "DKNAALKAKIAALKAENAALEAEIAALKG", "experiment": "two-hybrid library CCmax", "conditions": "mean of both orientations"}, "[35]": {"target": "T33, 4H4033-AA", "T33 chain": "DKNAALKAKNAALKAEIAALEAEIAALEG", "experiment": "two-hybrid library CCmax", "conditions": "mean of both orientations"}, "[36]": {"target": "T34, 4H481-AA", "T34 chain": "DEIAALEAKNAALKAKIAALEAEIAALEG", "experiment": "two-hybrid library CCmax", "conditions": "mean of both orientations"}, "[37]": {"target": "T35, 4H55-AA", "T35 chain": "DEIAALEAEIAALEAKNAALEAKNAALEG", "experiment": "two-hybrid library CCmax", "conditions": "mean of both orientations"}, "[38]": {"target": "T36, 4H662-AA", "T36 chain": "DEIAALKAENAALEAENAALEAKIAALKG", "experiment": "two-hybrid library CCmax", "conditions": "mean of both orientations"}, "[39]": {"target": "T37, P9SHb", "T37 chain": "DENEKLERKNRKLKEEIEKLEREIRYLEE", "experiment": "two-hybrid library CCNG1"}, "[40]": {"target": "T38, 4H2915-bH", "T38 chain": "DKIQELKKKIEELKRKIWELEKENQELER", "experiment": "two-hybrid library CCNG1"}, "[41]": {"target": "T39, 4H3057-bH", "T39 chain": "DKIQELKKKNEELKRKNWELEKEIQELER", "experiment": "two-hybrid library CCNG1"}, "[42]": {"target": "T40, 4H319-bH", "T40 chain": "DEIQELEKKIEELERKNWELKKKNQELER", "experiment": "two-hybrid library CCNG1"}, "[43]": {"target": "T41, 4H3277-bH", "T41 chain": "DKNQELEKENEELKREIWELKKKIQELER", "experiment": "two-hybrid library CCNG1"}, "[44]": {"target": "T42, 4H348-bH", "T42 chain": "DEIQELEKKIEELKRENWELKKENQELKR", "experiment": "two-hybrid library CCNG1"}, "[45]": {"target": "T43, 4H40-bH", "T43 chain": "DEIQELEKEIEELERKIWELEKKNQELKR", "experiment": "two-hybrid library CCNG1"}, "[46]": {"target": "T44, 4H477-bH", "T44 chain": "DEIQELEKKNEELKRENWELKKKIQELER", "experiment": "two-hybrid library CCNG1"}, "[47]": {"target": "T45, 4H492-bH", "T45 chain": "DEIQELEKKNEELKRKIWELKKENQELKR", "experiment": "two-hybrid library CCNG1"}, "[48]": {"target": "T46, 4H741-bH", "T46 chain": "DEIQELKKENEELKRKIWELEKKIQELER", "experiment": "two-hybrid library CCNG1"}}}
{"binder": "B1", "values": [{"measurement": "interaction score", "setting": "[1]", "result": -0.536}, {"measurement": "interaction score", "setting": "[2]", "result": 0.377}, {"measurement": "interaction score", "setting": "[3]", "result": -0.124}, {"measurement": "interaction score", "setting": "[4]", "result": 1.51}, {"measurement": "interaction score", "setting": "[5]", "result": -0.558}, {"measurement": "interaction score", "setting": "[6]", "result": -0.511}, {"measurement": "interaction score", "setting": "[7]", "result": -0.765}, {"measurement": "interaction score", "setting": "[8]", "result": -1.55}, {"measurement": "interaction score", "setting": "[9]", "result": -0.542}, {"measurement": "interaction score", "setting": "[10]", "result": -1.58}]}
{"binder": "B2", "values": [{"measurement": "interaction score", "setting": "[11]", "result": -1.28}]}
{"binder": "B3", "values": [{"measurement": "interaction score", "setting": "[12]", "result": -2.04}, {"measurement": "interaction score", "setting": "[13]", "result": -0.934}, {"measurement": "interaction score", "setting": "[14]", "result": -0.634}, {"measurement": "interaction score", "setting": "[15]", "result": 1.5}, {"measurement": "interaction score", "setting": "[16]", "result": -0.0465}, {"measurement": "interaction score", "setting": "[17]", "result": -1.05}, {"measurement": "interaction score", "setting": "[18]", "result": -0.335}, {"measurement": "interaction score", "setting": "[19]", "result": -1.79}, {"measurement": "interaction score", "setting": "[20]", "result": -0.509}, {"measurement": "interaction score", "setting": "[21]", "result": -1.77}, {"measurement": "interaction score", "setting": "[22]", "result": -2.15}, {"measurement": "interaction score", "setting": "[23]", "result": -1.87}, {"measurement": "interaction score", "setting": "[24]", "result": -2.29}, {"measurement": "interaction score", "setting": "[25]", "result": -1.13}, {"measurement": "interaction score", "setting": "[26]", "result": 0.274}, {"measurement": "interaction score", "setting": "[27]", "result": -1.35}]}
{"binder": "B4", "values": [{"measurement": "interaction score", "setting": "[28]", "result": 1.36}, {"measurement": "interaction score", "setting": "[29]", "result": -1.45}, {"measurement": "interaction score", "setting": "[30]", "result": 0.992}, {"measurement": "interaction score", "setting": "[31]", "result": -0.283}, {"measurement": "interaction score", "setting": "[14]", "result": -0.165}, {"measurement": "interaction score", "setting": "[32]", "result": -1.05}, {"measurement": "interaction score", "setting": "[33]", "result": 1.68}, {"measurement": "interaction score", "setting": "[34]", "result": -1.41}, {"measurement": "interaction score", "setting": "[35]", "result": 2.08}, {"measurement": "interaction score", "setting": "[36]", "result": 1.94}, {"measurement": "interaction score", "setting": "[37]", "result": -1.14}, {"measurement": "interaction score", "setting": "[38]", "result": -0.732}]}
{"binder": "B5", "values": [{"measurement": "interaction score", "setting": "[39]", "result": -0.553}]}
{"binder": "B6", "values": [{"measurement": "interaction score", "setting": "[40]", "result": 0.772}, {"measurement": "interaction score", "setting": "[41]", "result": -0.637}, {"measurement": "interaction score", "setting": "[42]", "result": -1.33}, {"measurement": "interaction score", "setting": "[43]", "result": -1.15}, {"measurement": "interaction score", "setting": "[44]", "result": -0.507}, {"measurement": "interaction score", "setting": "[45]", "result": -1.4}, {"measurement": "interaction score", "setting": "[46]", "result": -2.15}, {"measurement": "interaction score", "setting": "[47]", "result": -1.59}, {"measurement": "interaction score", "setting": "[48]", "result": -0.324}]}
